Measurements: publication PMC11235169 (2024)

Assays:
[1] = molecular target: recombinant sushi domain protein; assay: fluorescence polarisation; competition: preformed complex of sushi domain protein (40 nM) and TMR-hAJAP17 (25 nM) outcompeted with unlabeled peptides (0.006 to 6.25 μM or 0.03 to 62.5 μM); 20 mM NaPi pH 6.8, 50 mM NaCl, 0.5 mM EDTA, 1% BSA, 25°C; Ki calculated from sigmoidal dose-response fits
[2] = molecular target: recombinant sushi domain protein; assay: ITC; 100 μM hAJAP17 or 300 μM W183C peptide injected into 10 or 30 μM sushi domain protein in the cell; 25°C; 20 mM NaPi pH 7.4; one-site binding model
[3] = molecular target: T1, TMR-hAJAP17 (human); assay: fluorescence polarisation; saturation binding: sushi domain protein (0.73 to 1500 nM) added to TMR-hAJAP17 (25 nM); 20 mM NaPi pH 6.8, 50 mM NaCl, 0.5 mM EDTA, 1% BSA, 25°C; one-site binding model
T1 chain: ETEFIAWGPTGDEEALE

[4] = molecular target: T2, recombinant sushi domain protein; assay: FP
T2 chain: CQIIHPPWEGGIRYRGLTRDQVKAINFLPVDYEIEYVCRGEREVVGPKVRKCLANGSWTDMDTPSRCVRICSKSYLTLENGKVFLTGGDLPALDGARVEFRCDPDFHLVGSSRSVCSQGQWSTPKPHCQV

[5] = molecular target: T2, recombinant sushi domain protein; assay: ITC

B1: hAJAP17 (peptide)
peptide: ETEFIAWGPTGDEEALE
Ki [1]: 0.06 µM
Kd [2]: 0.047 µM
stoichiometry N [2]: 1

B2: recombinant sushi domain protein (domain or fragment)
chain: T2 chain
modifications: not checked
Kd [3]: 0.0204 µM

B3: mAJAP17-W183C (peptide)
chain: ETEFIACGPTGDEDALE
modifications: Limits taken by alignment with the printed human 17-mer … (177-193, W183 at position 7; W183 has the same number in mouse). C-terminal amide is likely, as printed for the TMR-hAJAP17 peptide, but is not stated for this one
Ki [4]: 44.8 µM

B4: hAJAP17-W183C (peptide)
peptide: ETEFIACGPTGDEEALE
Ki [4]: 49.3 µM
Kd [5]: 46.7 µM
